Results on three molecules are retold here after patent US20090280128A1 (SBI BIOTECH, published 2009).

In assay [1] the target is T1, C-FLAG ILT7 (human ILT7 with FLAG tag at the C terminus, co-expressed with Myc-FcRγ) (human, UniProt P59901 17-499). The experiment in a line: cell-based or functional assay.
The target in assay [2] is T2, C-FLAG ILT1 (human ILT1 with a FLAG tag at the C terminus, on 293T cells) (human, UniProt Q8N149 24-483).
T2 construct: Cloned from a human tonsil cDNA library; also called pME18X-C-FLAGILT1; pME18X-C-FLAG ILT1
The assay can be described thus: flow cytometry on 293T cells co-transfected with C-FLAG ILT1, ILT2, ILT3 and Myc-FcRγ. (In general: Flow cytometry measures light scatter and fluorescence of single cells or particles in a stream.)

Assay [3] addresses ILT2 (on 293T cells, from pcDNA4.1-ILT2) (Homo sapiens (Human), UniProt Q8NHL6 24-650). The description is as above.
Assay [4] addresses ILT3 (on 293T cells, from pcDNA4.1-ILT3) (Homo sapiens (Human), UniProt Q8NHJ6 22-448). The description is as above.
The target of assay [5] is T3, human ILT7 expressed on human IPCs (interferon producing cells, BDCA-2 positive cells of peripheral blood … (human, UniProt P59901 17-499)).
T3 construct: Natural protein on primary human cells; GenBank NM-012276 is printed for the cDNA; also called immunoglobulin-like transcript-7; ILT7 molecules expressed on human IPCs
The experiment in a line: flow cytometry, multiple staining of human peripheral blood lymphocytes (Lineage-1, CD123, BDCA-2).

Assay [6] deals with T3, human ILT7 expressed on human IPCs …. The assay can be described thus: flow cytometry on human lymphocytes, with anti-CD123 antibody.
The target of assay [7] is T4, N-FLAG ILT7 (human ILT7 with FLAG tag attached to the N terminus, co-expressed with Myc-FcRγ on 293T cells) (human, UniProt P59901 17-499).
T4 construct: also called pME18X-N-FLAG ILT7; ILT7 molecules with a FLAG tag
The experiment in a line: flow cytometry on 293T cells co-expressing N-FLAG ILT7 and Myc-FcRγ.

Assay [8] deals with T1, C-FLAG ILT7 (human ILT7 with FLAG tag …). The experiment in a line: flow cytometry of hybridoma supernatant on 293T cells transfected with C-FLAG ILT7 and Myc-FcRγ.
Assay [9] has as its target T3, human ILT7 expressed on human IPCs …. The assay can be described thus: flow cytometry as in B of Example 2 (human peripheral blood lymphocytes, BDCA-2 positive cells).

T3 sequence (P59901 other isoform, or with tags, fused parts or gaps): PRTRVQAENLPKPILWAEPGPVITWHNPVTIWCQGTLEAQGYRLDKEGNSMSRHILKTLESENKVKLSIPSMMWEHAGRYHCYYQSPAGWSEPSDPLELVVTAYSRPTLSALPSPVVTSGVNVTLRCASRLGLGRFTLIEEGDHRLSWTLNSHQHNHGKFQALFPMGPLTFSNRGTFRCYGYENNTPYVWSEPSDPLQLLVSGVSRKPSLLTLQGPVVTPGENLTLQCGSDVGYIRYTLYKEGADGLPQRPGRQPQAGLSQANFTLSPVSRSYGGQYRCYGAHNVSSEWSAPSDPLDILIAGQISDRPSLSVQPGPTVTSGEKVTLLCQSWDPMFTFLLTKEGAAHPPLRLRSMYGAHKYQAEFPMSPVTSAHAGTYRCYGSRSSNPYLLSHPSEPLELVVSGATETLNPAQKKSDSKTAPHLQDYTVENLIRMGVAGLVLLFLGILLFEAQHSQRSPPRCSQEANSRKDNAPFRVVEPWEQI
T1 sequence (P59901 other isoform, or with tags, fused parts or gaps): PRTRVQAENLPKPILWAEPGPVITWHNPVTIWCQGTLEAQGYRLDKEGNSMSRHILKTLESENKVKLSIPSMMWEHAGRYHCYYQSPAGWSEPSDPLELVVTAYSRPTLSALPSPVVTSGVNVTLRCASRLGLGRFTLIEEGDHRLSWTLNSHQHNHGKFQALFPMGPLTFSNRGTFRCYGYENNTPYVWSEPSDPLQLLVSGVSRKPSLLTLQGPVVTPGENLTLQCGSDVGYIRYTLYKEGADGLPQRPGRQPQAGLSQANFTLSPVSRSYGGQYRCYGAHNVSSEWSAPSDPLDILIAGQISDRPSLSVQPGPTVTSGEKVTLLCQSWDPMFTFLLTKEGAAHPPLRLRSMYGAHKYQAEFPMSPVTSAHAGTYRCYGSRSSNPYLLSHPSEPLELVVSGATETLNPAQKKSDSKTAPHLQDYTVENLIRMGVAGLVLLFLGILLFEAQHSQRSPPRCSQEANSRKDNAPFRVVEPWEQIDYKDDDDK
T2 sequence (Q8N149 other isoform, or with tags, fused parts or gaps limits assumed): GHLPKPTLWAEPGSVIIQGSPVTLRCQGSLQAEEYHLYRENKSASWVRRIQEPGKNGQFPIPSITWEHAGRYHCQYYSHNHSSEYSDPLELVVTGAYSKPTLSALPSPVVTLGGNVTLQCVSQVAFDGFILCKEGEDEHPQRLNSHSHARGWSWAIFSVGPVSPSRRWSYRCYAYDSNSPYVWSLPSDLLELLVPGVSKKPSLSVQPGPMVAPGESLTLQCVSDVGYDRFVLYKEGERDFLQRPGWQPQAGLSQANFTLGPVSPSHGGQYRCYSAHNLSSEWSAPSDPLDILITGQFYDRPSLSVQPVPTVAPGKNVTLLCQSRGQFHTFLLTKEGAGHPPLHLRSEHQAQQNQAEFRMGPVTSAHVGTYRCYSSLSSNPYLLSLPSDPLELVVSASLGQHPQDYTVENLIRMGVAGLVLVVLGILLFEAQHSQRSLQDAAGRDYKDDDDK
ILT2 (on 293T cells, from pcDNA4.1-ILT2), sequence (Q8NHL6 other isoform, or with tags, fused parts or gaps limits assumed): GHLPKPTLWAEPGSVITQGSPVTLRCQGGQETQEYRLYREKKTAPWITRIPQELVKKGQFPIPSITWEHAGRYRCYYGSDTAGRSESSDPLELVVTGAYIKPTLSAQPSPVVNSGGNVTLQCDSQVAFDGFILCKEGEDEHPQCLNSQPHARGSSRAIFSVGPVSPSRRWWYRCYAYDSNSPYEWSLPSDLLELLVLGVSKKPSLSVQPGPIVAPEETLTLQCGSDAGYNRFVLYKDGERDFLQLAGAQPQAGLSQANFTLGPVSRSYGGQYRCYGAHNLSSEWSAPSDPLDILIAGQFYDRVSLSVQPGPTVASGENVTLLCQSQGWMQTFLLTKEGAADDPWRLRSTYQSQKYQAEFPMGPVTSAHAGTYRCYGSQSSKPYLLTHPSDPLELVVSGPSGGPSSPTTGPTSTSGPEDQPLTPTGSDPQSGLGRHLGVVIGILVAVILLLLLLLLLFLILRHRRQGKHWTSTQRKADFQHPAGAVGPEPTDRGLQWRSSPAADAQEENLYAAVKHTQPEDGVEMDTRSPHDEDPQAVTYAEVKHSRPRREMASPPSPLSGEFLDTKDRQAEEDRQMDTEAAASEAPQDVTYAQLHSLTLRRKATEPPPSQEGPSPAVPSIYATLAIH
ILT3 (on 293T cells, from pcDNA4.1-ILT3), sequence (Q8NHJ6 22-448 D223G/Q414R limits assumed): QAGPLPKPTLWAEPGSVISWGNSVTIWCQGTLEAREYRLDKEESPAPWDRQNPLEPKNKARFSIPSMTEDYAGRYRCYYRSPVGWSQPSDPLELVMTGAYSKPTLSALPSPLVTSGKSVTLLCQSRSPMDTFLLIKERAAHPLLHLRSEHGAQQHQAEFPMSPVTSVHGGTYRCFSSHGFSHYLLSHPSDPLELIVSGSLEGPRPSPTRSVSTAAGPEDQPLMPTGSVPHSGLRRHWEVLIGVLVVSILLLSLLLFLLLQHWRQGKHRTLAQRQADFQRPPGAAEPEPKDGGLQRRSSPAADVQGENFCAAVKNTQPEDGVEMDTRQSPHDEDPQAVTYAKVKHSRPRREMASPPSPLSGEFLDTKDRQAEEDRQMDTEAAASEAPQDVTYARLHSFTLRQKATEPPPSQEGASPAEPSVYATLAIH
T4 sequence (P59901 other isoform, or with tags, fused parts or gaps): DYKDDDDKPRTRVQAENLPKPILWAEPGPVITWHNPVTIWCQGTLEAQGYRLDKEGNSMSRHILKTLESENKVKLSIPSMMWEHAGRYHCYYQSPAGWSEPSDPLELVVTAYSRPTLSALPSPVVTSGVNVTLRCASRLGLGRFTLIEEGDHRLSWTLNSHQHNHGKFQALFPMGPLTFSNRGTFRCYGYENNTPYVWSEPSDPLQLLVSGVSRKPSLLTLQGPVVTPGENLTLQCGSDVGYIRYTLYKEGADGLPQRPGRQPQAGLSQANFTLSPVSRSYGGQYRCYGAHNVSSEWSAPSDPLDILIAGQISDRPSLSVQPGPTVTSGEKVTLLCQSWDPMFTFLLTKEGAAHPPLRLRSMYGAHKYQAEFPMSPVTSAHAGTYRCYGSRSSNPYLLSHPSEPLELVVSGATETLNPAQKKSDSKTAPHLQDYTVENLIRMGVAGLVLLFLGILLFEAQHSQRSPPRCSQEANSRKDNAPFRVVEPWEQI

B1: anti-ILT7 antibody #17 (mouse anti-human ILT7 monoclonal antibody produced by hybridoma #17, FERM BP-10705) (antibody, V domains shown)
VH: QVQLKQSGAELVRPGASVKLSCKTSGYIFTSYWIHWVKQRSGQGLEWIARIYPGTGSTYYNEKFKGKATLTADKSSSTAYMQLSSLKSEDSAVYFCARYPTYDWYFDVWGAGTTVTVSS
VL: DIVLTQSPATLSVTPGDRVSLSCRASQSISNYLHWYQQKSHESPRLLIKYASQSISGIPSRFSGSGSGTDFTLSINSVETEDFGMYFCQQSNSWPLTFGAGTKLELK
notes: Mouse hybridoma antibody as tested; also called ILT7#17
Consider B1, for which, in [1], the “APC fluorescence intensity ratio (%), 37 °C against 4 °C (internalization on ILT7-CHO cells)” value was found to be 95.4%. Also, the “FITC fluorescence intensity ratio (%), 37 °C against 4 °C (internalization on ILT7-CHO cells)” value in assay [1] worked out at 44.5%. Also, the binding result was “no binding” in assay [2], “no binding” in assay [3], “no binding” in assay [4] and “binds” in assay [5].

B2: anti-ILT7 antibody #11 (mouse anti-human ILT7 monoclonal antibody produced by hybridoma #11, FERM BP-10704) (antibody, V domains shown)
VH: DVQLQESGPGLVKPSQSLSLTCTVTGYSITSDYAWNWIRQFPGNKLEWMGYISYSGSTSYNPSLKSRISITRDTSKNQFFLQLNSVTTEDTATYYCARSPPYYAMDYWGQGTSVTVSS
VL: DIVMTQSHKFMSTSVGDRVSITCKASQDVGTAVAWYQQKPGQSPKLLIYWASTRHTGVPDRFTGSGSGTDFTLTISNVQSEDLADYFCQQYSSYPLTFGAGTKLELK
notes: Mouse hybridoma antibody as tested; also called ILT7#11; anti-ILT7 antibody 411
B2: the binding result is given as “binds” in assay [6]; “binds” in [7]; “no binding” in assay [2]; “no binding” in assay [3]; “no binding” in assay [4]; “binds” in assay [8].

B3: mouse anti-human ILT7 antibody #37 (monoclonal antibody produced by hybridoma #37) (antibody, V domains shown)
VH: DVQLQESGPGLVKPSQSLSLTCTVTGYSITSDYAWNWIRQFPGNKLEWMGYISYSGSTSYNPSLKSRISITRDTSKNQFFLQLNSVTTEDTATYYCARALPLPWFAYWGQGTLVTVSA
VL: DIVMTQSHKFMSTSVGDRVSITCKASQDVGTAVAWYQQKPGQSPKLLIYWASTRHTGVPDRFTGSGSGTDFTLTISNVQSEDLADYFCQQYSSYPYTFGGGTKLEIK
notes: Mouse hybridoma antibody; also called ILT7#37; ILT7437
Regarding B3, in [1], the “APC fluorescence intensity ratio (%), 37 °C against 4 °C (internalization on ILT7-CHO cells)” value was found to be 98.2% and the “FITC fluorescence intensity ratio (%), 37 °C against 4 °C (internalization on ILT7-CHO cells)” value is 55.9%. In addition, the binding result in assay [9] is reported as “binds”.
